Laboratory results reported in IntAct's records for PubMed 17409324.

B1: Vang-like protein 1 (Homo sapiens), Q8TAA9 (parent)
chain: MDTESTYSGYSYYSSHSKKSHRQGERTRERHKSPRNKDGRGSEKSVTIQPPTGEPLLGNDSTRTEEVQDDNWGETTTAITGTSEHSISQEDIARISKDMEDSVGLDCKRYLGLTVASFLGLLVFLTPIAFILLPPILWRDELEPCGTICEGLFISMAFKLLILLIGTWALFFRKRRADMPRVFVFRALLLVLIFLFVVSYWLFYGVRILDSRDRNYQGIVQYAVSLVDALLFIHYLAIVLLELRQLQPMFTLQVVRSTDGESRFYSLGHLSIQRAALVVLENYYKDFTIYNPNLLTASKFRAAKHMAGLKVYNVDGPSNNATGQSRAMIAAAARRRDSSHNELYYEEAEHERRVKKRKARLVVAVEEAFIHIQRLQAEEQQKAPGEVMDPREAAQAIFPSMARALQKYLRITRQQNYHSMESILQHLAFCITNGMTPKAFLERYLSAGPTLQYDKDRWLSTQWRLVSDEAVTNGLRDGIVFVLKCLDFSLVVNVKKIPFIILSEEFIDPKSHKFVLRLQSETSV
partner: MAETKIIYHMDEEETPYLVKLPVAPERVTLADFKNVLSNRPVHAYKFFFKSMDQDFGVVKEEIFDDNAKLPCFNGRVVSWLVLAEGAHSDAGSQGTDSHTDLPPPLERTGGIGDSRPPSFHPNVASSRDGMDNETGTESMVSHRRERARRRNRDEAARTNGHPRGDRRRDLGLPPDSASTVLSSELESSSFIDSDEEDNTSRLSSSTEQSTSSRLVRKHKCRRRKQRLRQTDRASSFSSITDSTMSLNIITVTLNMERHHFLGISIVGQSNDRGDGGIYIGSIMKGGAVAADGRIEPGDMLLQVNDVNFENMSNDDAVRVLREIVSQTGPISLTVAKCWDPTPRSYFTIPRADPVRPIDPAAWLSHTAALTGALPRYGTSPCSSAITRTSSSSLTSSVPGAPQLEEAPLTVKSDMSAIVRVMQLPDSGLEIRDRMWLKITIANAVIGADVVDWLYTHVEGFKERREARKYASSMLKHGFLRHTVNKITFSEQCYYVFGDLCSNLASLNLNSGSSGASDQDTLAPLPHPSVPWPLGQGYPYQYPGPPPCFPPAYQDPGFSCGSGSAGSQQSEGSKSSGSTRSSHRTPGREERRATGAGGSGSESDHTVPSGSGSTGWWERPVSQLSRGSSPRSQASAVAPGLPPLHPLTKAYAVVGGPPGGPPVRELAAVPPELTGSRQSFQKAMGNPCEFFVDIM
B2: Vang-like protein 1 (Homo sapiens), Q8TAA9 (parent)
chain: B1 chain
partner: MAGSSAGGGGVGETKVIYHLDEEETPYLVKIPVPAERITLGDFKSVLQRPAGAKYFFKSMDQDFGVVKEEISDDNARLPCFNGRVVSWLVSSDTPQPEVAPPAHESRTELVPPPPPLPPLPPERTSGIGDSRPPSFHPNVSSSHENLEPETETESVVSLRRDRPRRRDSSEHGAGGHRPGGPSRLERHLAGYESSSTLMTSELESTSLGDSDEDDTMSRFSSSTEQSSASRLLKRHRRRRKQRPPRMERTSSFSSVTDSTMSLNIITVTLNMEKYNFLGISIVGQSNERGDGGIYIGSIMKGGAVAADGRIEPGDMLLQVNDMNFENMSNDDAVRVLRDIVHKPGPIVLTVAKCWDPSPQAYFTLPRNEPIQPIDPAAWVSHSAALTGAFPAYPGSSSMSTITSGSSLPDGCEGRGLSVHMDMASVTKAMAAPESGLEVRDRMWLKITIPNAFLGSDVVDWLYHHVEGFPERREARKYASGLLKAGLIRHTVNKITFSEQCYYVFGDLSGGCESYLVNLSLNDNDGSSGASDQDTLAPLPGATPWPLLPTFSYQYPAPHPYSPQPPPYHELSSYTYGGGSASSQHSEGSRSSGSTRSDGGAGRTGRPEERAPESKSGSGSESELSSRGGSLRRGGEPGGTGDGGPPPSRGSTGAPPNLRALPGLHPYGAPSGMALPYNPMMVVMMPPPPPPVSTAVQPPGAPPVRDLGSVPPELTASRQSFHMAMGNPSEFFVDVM

Variants of: B1
Settings: with dvl1_mouse Dvl1, P51141

Variant | effect of a mutation on the interaction
MDTESTYSGYSYYSSHSKKSHRQGERTRERHKSPRNKDGRGSEKSVTIQPPTGEPLLGNDSTRTEEVQDDNWGETTTAITGTSEHSISQEDIARISKDMEDSVGLDCKRYLGLTVASFLGLLVFLTPIAFILLPPILWRDELEPCGTICEGLFISMAFKLLILLIGTWALFFRKRRADMPRVFVFRALLLVLIFLFVVSYWLFYGVRILDSRDRNYQGIVQYAVSLVDALLFIHYLAIILLELRQLQPMFTLQVVRSTDGESRFYSLGHLSIQRAALVVLENYYKDFTIYNPNLLTASKFRAAKHMAGLKVYNVDGPSNNATGQSRAMIAAAARRRDSSHNELYYEEAEHERRVKKRKARLVVAVEEAFIHIQRLQAEEQQKAPGEVMDPREAAQAIFPSMARALQKYLRITRQQNYHSMESILQHLAFCITNGMTPKAFLERYLSAGPTLQYDKDRWLSTQWRLVSDEAVTNGLRDGIVFVLKCLDFSLVVNVKKIPFIILSEEFIDPKSHKFVLRLQSETSV [V239I] | disrupting interaction strength
MDTESTYSGYSYYSSHSKKSHRQGERTRERHKSPRNKDGRGSEKSVTIQPPTGEPLLGNDSTRTEEVQDDNWGETTTAITGTSEHSISQEDIARISKDMEDSVGLDCKRYLGLTVASFLGLLVFLTPIAFILLPPILWRDELEPCGTICEGLFISMAFKLLILLIGTWALFFRKRRADMPRVFVFRALLLVLIFLFVVSYWLFYGVRILDSRDRNYQGIVQYAVSLVDALLFIHYLAIVLLELRQLQPMFTLQVVRSTEGESRFYSLGHLSIQRAALVVLENYYKDFTIYNPNLLTASKFRAAKHMAGLKVYNVDGPSNNATGQSRAMIAAAARRRDSSHNELYYEEAEHERRVKKRKARLVVAVEEAFIHIQRLQAEEQQKAPGEVMDPREAAQAIFPSMARALQKYLRITRQQNYHSMESILQHLAFCITNGMTPKAFLERYLSAGPTLQYDKDRWLSTQWRLVSDEAVTNGLRDGIVFVLKCLDFSLVVNVKKIPFIILSEEFIDPKSHKFVLRLQSETSV [D259E] | disrupting interaction strength

Second part, the variant after the results:

effect of a mutation on the interaction | Variant
with no effect | MDTESTYSGYSYYSSHSKKSHRQGERTRERHKSPRNKDGRGSEKSVTIQPPTGEPLLGNDSTRTEEVQDDNWGETTTAITGTSEHSISQEDIARISKDMEDSVGLDCKRYLGLTVASFLGLLVFLTPIAFILLPPILWRDELEPCGTICEGLFISMAFKLLILLIGTWALFFRKRRADMPRVFVFRALLLVLIFLFVVSYWLFYGVRILDSRDRNYQGIVQYAVSLVDALLFIHYLAIVLLELRQLQPMFTLQVVRSTDGESRFYSLGHLSIQRAALVVLENYYKDFTIYNPNLLTASKFRAAKHMAGLKVYNVDGPSNNATGQSRATIAAAARRRDSSHNELYYEEAEHERRVKKRKARLVVAVEEAFIHIQRLQAEEQQKAPGEVMDPREAAQAIFPSMARALQKYLRITRQQNYHSMESILQHLAFCITNGMTPKAFLERYLSAGPTLQYDKDRWLSTQWRLVSDEAVTNGLRDGIVFVLKCLDFSLVVNVKKIPFIILSEEFIDPKSHKFVLRLQSETSV [M328T]
with no effect | MDTESTYSGYSYYSSHSKKSHRQGERTRERHKSPRNKDGRGSEKSVTIQPPTGEPLLGNDSTRTEEVQDDNWGETTTAITGTSEHSISQEDIARISKDMEDSVGLDCKRYLGLTVASFLGLLVFLTPIAFILLPPILWRDELEPCGTICEGLFISMAFKLLILLIGTWALFFRKRRADMPRVFVFRALLLVLIFLFVVSYWLFYGVRILDSRDRNYQGIVQYAVSLVDALLFIHYLAIVLLELRQLQPMFTLQVVRSTDGESRFYSLGHLSIQQAALVVLENYYKDFTIYNPNLLTASKFRAAKHMAGLKVYNVDGPSNNATGQSRAMIAAAARRRDSSHNELYYEEAEHERRVKKRKARLVVAVEEAFIHIQRLQAEEQQKAPGEVMDPREAAQAIFPSMARALQKYLRITRQQNYHSMESILQHLAFCITNGMTPKAFLERYLSAGPTLQYDKDRWLSTQWRLVSDEAVTNGLRDGIVFVLKCLDFSLVVNVKKIPFIILSEEFIDPKSHKFVLRLQSETSV [R274Q]
disrupting interaction strength | MDTESTYSGYSYYSSHSKKSHRQGERTRERHKSPRNKDGRGSEKSVTIQPPTGEPLLGNDSTRTEEVQDDNWGETTTAITGTSEHSISQEDIARISKDMEDSVGLDCKRYLGLTVASFLGLLVFLTPIAFILLPPILWRDELEPCGTICEGLFISMAFKLLILLIGTWALFFRKRRADMPRVFVFRALLLVLIFLFVVSYWLFYGVRILDSRDRNYQGIVQYAVSLVDALLFIHYLAIVLLELRQLQPMFTLQVVRSTDGESRFYSLGHLSIQRAALVVLENYYKDFTIYNPNLLTASKFRAAKHMAGLKVYNVDGPSNNATGQSRAMIAAAARRRDSSHNELYYEEAEHERRVKKRKARLVVAVEEAFIHIQRLQAEEQQKAPGEVMDPREAAQAIFPSMARALQKYLRITRQQNYHSMESILQHLAFCITNGMTPKAFLERYLSAGPTLQYDKDRWLSTQWRLVNDEAVTNGLRDGIVFVLKCLDFSLVVNVKKIPFIILSEEFIDPKSHKFVLRLQSETSV [S467N]

Variants of: B2
Settings: with dvl2_mouse Dvl2, Q60838

effect of a mutation on the interaction | Variant
disrupting interaction strength | MDTESTYSGYSYYSSHSKKSHRQGERTRERHKSPRNKDGRGSEKSVTIQPPTGEPLLGNDSTRTEEVQDDNWGETTTAITGTSEHSISQEDIARISKDMEDSVGLDCKRYLGLTVASFLGLLVFLTPIAFILLPPILWRDELEPCGTICEGLFISMAFKLLILLIGTWALFFRKRRADMPRVFVFRALLLVLIFLFVVSYWLFYGVRILDSRDRNYQGIVQYAVSLVDALLFIHYLAIILLELRQLQPMFTLQVVRSTDGESRFYSLGHLSIQRAALVVLENYYKDFTIYNPNLLTASKFRAAKHMAGLKVYNVDGPSNNATGQSRAMIAAAARRRDSSHNELYYEEAEHERRVKKRKARLVVAVEEAFIHIQRLQAEEQQKAPGEVMDPREAAQAIFPSMARALQKYLRITRQQNYHSMESILQHLAFCITNGMTPKAFLERYLSAGPTLQYDKDRWLSTQWRLVSDEAVTNGLRDGIVFVLKCLDFSLVVNVKKIPFIILSEEFIDPKSHKFVLRLQSETSV [V239I]
